Data published in the nanobody polyreactivity screen of Harvey et al. (2022).

Assay: yeast display, Sf9 membrane polyspecificity reagent, FACS + sequencing; frameworks hold sequencing errors
Summary of the method: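 A synthetic nanobody library was expressed on Saccharomyces cerevisiae BJ5465 by galactose induction for 36–48 hours. The library was stained for 1 hour at 4 °C with 10% biotinylated, detergent-solubilized Sf9 membrane reagent and enriched with streptavidin microbeads before FACS. Low and high (top ~1%) gates were set on anti-HA fluorescence for expression and streptavidin fluorescence for reagent binding, and each polyreactivity label reflects the gate of origin.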

Sequence | polyreactivity (PSR sort gate)
QVQLVESVGGLVQEGGSLRLSCAASGSNFQWYAMGWYRQAPGKERELVAAIRYSGDSTYYADSVKGRFTISRDNAKNTDYLQMNSLKPEDTAVYYCAAEATTRWLLYNYWGQGTQVTVSS | high polyreactivity
QVQLVESGGGLVQAGGSLRLSCAAYGRTFGLNAMGWYRQAPGKERELVAAISSSGGSTYYADSVKGRFTISRDNAKNTVYLQMNSLKPEDTAVYYCARVPLHRYGYWGQGTQVNVSS | high polyreactivity
QVQLVESGGGLVKAGGSLRLSCAASGSTFVGYAMGWYRQAPGKEREIVAAITRGGSTNYADSVKGRFTISRDNAKNTVYLQMNSLKPEDTAVYYCAARDRREGFNFDYWGQGTQVTVSS | low polyreactivity
QVQLVESGGGLVQAGGSLRLSCAASGRTLDGNDMGWYRQPPGKERELVAAITVTGSSTYYADSVKGRFTISRDNAKNTVYLQMNSLKPEDTAVYYCAKASGGDVRYSYSYRMDYWGQGTQVTVSS | low polyreactivity
QVNLVDSGGGLVQAGGSLRLSCAASGSTFRNNAMGWSRQAPGKERELVAVITGDGGSTYYADSVKGRFTISRDNAKNTVYLQMNSLKPEDTAVYYCNARSIRYYRFRLRFGYWGQGTQVTVSS | low polyreactivity
QVQLVESGGGLVQAGGSLRLSCAASGFIFGQYAMGWSRQAPGKERELVAAISSVGTTNYADSVKGRFTISRDNAKNTVYLQMNSLKPEDTAVYYCNAPVFYYWDYSYFPYEVDYWGQGTQVTVSS | low polyreactivity
QVQLVESGGGLVQAGGSLRLSCAASGFTFDFYAMGWYRPAPGKERELVAAISRSGGRTYYADSVKGRFTISRDNAKNTVYLQMNSLKPEDTAVYYCNTGFFYYNFRYYYWGQGTQVTVSS | low polyreactivity
QVQLVESGAGLVHAGGSLRLSCASSGSIFNVYAMGWYRQAPGKERELVAAIRSSGGSTYYADSVKGRFTISRDKAKNTVNLQMNSLKPEDTAVYYCAAVTRAIRTWRMYYWGQGTQVTVSS | high polyreactivity
QVQLVESGGGLVQAGGSLRLSCAASGSIFFAYDMGWYRQAPGKERELVAAISNIDGSTYYADSVKGRFTISRDNAKNTVYLQMNSVKPEDTAVYYCATRVYYLYDYWGQGTQVTVSS | low polyreactivity
QVQLVESGGGLVQAGGSLRVSCAASGSTFRVNGMGGYRQAPGKERELLATIRGRGGTTYYADSVKGRFTISRDNAKTTVYLQMNSLKPDDTAVSYCAATNVKRTEGYTPDYDYWGHGTQVTVSS | high polyreactivity
QVQLVESGGGLVEAGGSLRLSCAASGSIFGNYALGWYRQAPGKERELVAAITSSNGNTYNADSVKGRFTISRDTAKNTVYFQMNSLKPEDTAVYYCATDSWSPYLQTIFYYWGHGTQVTVSS | low polyreactivity
QVQLVESVGGLVQAGGSLRLSCAASGRTFGGNAMGWYRQAPGKERELVAVITGSGARTYYADSVKGRFTISRDNAKNTVYLQMNSLKPEDTAVYYCAAAGYSGQYRSYYWGQGTQVTVSS | high polyreactivity
QVQLVESGGGLVQAGGSLRLSCAASGSNFHGNSLGRYRQGTGKERELVAAISQSGDSTYYADSVKGRFTISRDNAKNTVYLQMNSLKPEDTAVYYCAARSGYRGYYHFYYWGQGTQVTVSS | high polyreactivity
QVQLEESGGGLVQAGGTLRLSCAASGLNFSYNAMGWYRQAPGKERELVAAISYSGGSTYYPDSVKGRFTISRDNAKNTVYLQMNSLKPEDTAVYYCASDAWWLYYGYYYWGQGTQVTLSS | high polyreactivity
QVQLVESGGGLVQAGGSLRLSCAASASIFAYKAIGWYRQAPGKESELVASITNGGSTYYADSVKGRFTISRDNAKNTVYLQMNSLKQEDTAVYYCNTDFDVYSVGYDGYWGQGTQVTVSS | low polyreactivity
QVQLVESGGGLVQAGGSLRLSCAASGFIFRSYDMGWYRQAPGKERELVARISSGGSTYYADSVKGRFTISRDNAKNTVYLQMNSLKPEDTAVYYCNSARPTAAYDYWGQGTQVTVSS | low polyreactivity
QVQLVESGGVLVQAGGSLRLSCAASGRTFDSYAMGWYRQAPGKERELVAAISSRGTRTYYADSVKWRFTISRDNAKNTVYLQMNSLKPEDTAVYYCNAGGAYEYDYWGQGTQVTVSS | high polyreactivity
QVQLVESGGGLVQAGGRLRISCAASGRTFYRYAMGWYRQAPGKERELVAAITYSGGSTNYADSVKGRFTISRDYAKNTVYLQMNSLKPEDTAVYYCATRYNVVRWPYYYWGQGTQVNVSS | high polyreactivity
QVQLVESGGGLVQAGGSLRLSCAASGIIIDYYTMGWYRQAPGKERELVAAINKSGGSTYADSVKGRFTISRDNAKNTVYLQMNSLKPEDTAVYYCAAEVDYSYSPEYARKYYYWGQGTQVTVSS | low polyreactivity
QDQLVESGGGLVQAGGSLRLSCAAYGYTFDDNAMGWFRQAPGKERELVAAINWDGASTYADSVKGRFTISRDNAKNTVYLQMNSLKPEDTAVYYCTASGKDIFNYVYQGYDYCGQGTQVTVSS | low polyreactivity
QVQLVESGGGIVQAGGSLRLSCAASGSIFLYYAMGWYRQAPGNERQLVATINWSGGTTYYADSVKGRFTISRDNAKNTVYLQMNSLKPEDTAVYYCNKAKTAYRGQYDYWGQGTQVTVSS | high polyreactivity

Sequence | polyreactivity (PSR sort gate)
QVQLVESGGGLVQAGGSLRLSCAASGSIFTFYAMGWYRQAPGKERELVAAITTIGGRTYYADSVKGRFTISRDNAKNTVYLQMNSLKPEDTAVYYCAAGYRAWEPYGHYGYWGQGTQVTVSS | high polyreactivity
QVQLVESGGGLVQAGGSLRLSCAASGIFRSNARGWYRQAPGKERELVAGISSGGGTNYADSVKGRFTISRDNAKNTVYLQMNSLKPEDTAVYYCAKERIYFDYWYVYTDLVYEYDYWGQGSQVTVSS | low polyreactivity
QVQLVESGGGLVQAGGRLRLSCAASGSIFQKNAMGWYRQAPGKERELVAVITRGGTSTYYADSVKGRFTISRDNAKNTVYLQMNSLKTEDTAVYYCAAKADKRLDYWGQGTQVTVSS | low polyreactivity
QVQLVESGGGLVQAGGSLRLSCAASGRIFGVYALGWYRQAPGKERELVAVISSGGSTKYADSVKGRFTISRDTAKNTVYLQMNSLKPEDTAVYYCAAADYRFWSRYDYWGQGTQVTVSS | low polyreactivity
QFQLVESGGGLVHAVGSLRLSCAASGRTGKNAMGWYRQAPGKERELVAAIRYNGGSTYYADSVKGRFTISRDNAKNSVYLQMNSLKPEDTAVYYCAAAFRRHNGSAFNYWGQGTQVTVSS | high polyreactivity
QVQLVESGGGLVQAGGSLRLSCAASGSIFTPYAMGWSRQAPGKERELVAVISWRVDSTYYADSVKGRFTISRDNAKNTVYLQMNSLKPEDTAVYYCAAKSYLLAPFGSGNRWSRYDYWGQGTQVTVSS | high polyreactivity
QVQLVESGGGLVQAGGSLRLSCAASGSTFRDNTMGWYRQAPGKERELVAAITKSGGSTYYADSVKGRFTISRDTAKNTVYLQMNSLKPEDTAVYYCAAGARPRDKPVYFLYRYDYWGQGTQGTVSS | low polyreactivity
QVQHVESGGGIVQAGGSLRLSCAASGITFYGNTMGWYRPARGKERELVARISSGGSTNYADSVKGRFTISREKAKNSGYLQMNSLKPEDTAVYYCAVKQYWYIWSGYGYDYWGQGTQVTVSS | high polyreactivity
QVQLVDSGGGLVQAGGSLRLSCAASGSITYYAMGWYRQAPGKERELVAAISSSGGSTYYADSVKGRFTISRDNAKNTVYLQMNSLKPEDTAVYYCAAYGRYGAHTGYGSWGQGTQVTVSS | high polyreactivity
QVQLVESGGGLVQAGGSLRLICAASGSNFNPYAMGWYRQAPGKERELVAAINSGDSTNYADSVKGRFSISRDNAKNTLYLQMNSLKPEDTAVFYCANRYRRRYNYWGQGTQETVSS | high polyreactivity
QVQLVESGGGLVQAGGSLRLSCAASGFTFRSNAMGWYRQAPGKERELVAAISYSGDSTYYADSVKGRFTISRDNAKNTVYLQMNSLKPEDTAVYYCNAVGSGYRSWYDYWGQGTQVTVSS | high polyreactivity
QVQLLESGGGLVQAGGSLRLSCAASGNTLRYNVMGWYRQAPGKERELFAAISGGGSTSYADSVKGRFTISRDNAKNTVYLQMNSLKPEDTAVYYCAKRSFVGGRGRDSDYRGQGTQVTVSS | low polyreactivity
QVQLVESAGGLVQAGGSLRLSCAASGRNFVDYAMGWYRQAPGKERELVAAITQRGGSTYYADSVKGRFTISRDNAKNTVYLQMNSLKPEDTAVYYCAAVTRFYTKYYWGQGTQVTVSS | high polyreactivity
QVQLVESGGGLVQAGGSLRLSCAASGRIFRGSAMGWYRQAPGKERELVATINASGGTTYYADSVKGRFTISRDNAKNTVYLQMNSLKPEDTAVYYCNARFRRFFSGYGYWGQGTQVTVSS | high polyreactivity
QVQLVESGGGLVQAGGSLRLSCAASGRTFYYYVKGWDRQAPGKERELVAAITIRGGSTYYADSVKGRFTNSRDNAKNTVYLQMNSLKPEDTAVYYCNARGGSSTYGNYYWGQGTQVTVSS | low polyreactivity
QVQLVESGGGLVQAGGSLRLSCAASGSIFGLYAMGWYRQAPGKERELVAAITASDGSTYYADSVKGRFTISRDNAKNTVYLQMNSLKPEDTADYYCNADAYSGYFLFDYWGQGTQVTVSS | low polyreactivity
QVQLVESGGGLVQAGGSLRLSCAASGRTFWYYDMGWYRQAPGKERELVATINNVGSTHYADSVKGRFTISRDNAKNTVYLQMNSLKPEDTAVYYCARASYGKMDYWGQGTQVTVSS | high polyreactivity
QVQLVESVGGLVQAGGSLRLSCAASGGIFYKYAMGWYRQAPGNERELVAAITGRGGSTNYADSVKGRFTISRDNSKNTVYLQMNSLKPEDNAVYYCAADLRLYSSQDNDYWGQGTQVTVSS | low polyreactivity
QVLLQESGGGLVQAGGSLRLGCAASGTISPAYYMGRYHQAPGKEREFVAAITYGTNTYYADSVKGRFTISRDNAKNNVYLQMNSLKPEDTAVYYCSASAGYNGAHDYWGQGTQVTVSS | low polyreactivity
QVQLVESGGGLVQAGGSLRLSCAASGSTFVRNAMGWYRQAPGKERELVAAITSSGGSTYYADSVKGRFTISRDNAKYSVYLQMNSLKPEDTAVYYCAKRRYYRYDYWGQGTQVTVSS | low polyreactivity
